What was measured:
[1] = target: firefly luciferase Fluc^K378C-K496C (Fluc^CDS1, C-terminal domain sensor) (firefly) [luciferase: P08659]; test: single-molecule FRET within the labelled client
[2] = target: firefly luciferase Fluc^A12C-K329C (Fluc^NDS1, N-terminal domain sensor) (firefly) [luciferase: P08659]; test: single-molecule FRET within the labelled client

Substance: DnaK (bacterial Hsp70) (from UniProt P0A6Y8 1-638) (natural protein)
- percent of the time DnaK-bound (FRET < 0.3) after 15 min [1]: 15%
- percent of the time DnaK-bound (FRET < 0.3) after 15 min [2]: 15%
